According to article PMC2685181 (The Journal of neuroscience : the official journal of the …, 2008):
Where no end group is shown, it is not given here.

B1: GST_I-II loop with seven glycines inserted between F376 and L377 (domain or fragment, rabbit, UniProt P27884 369-413, looked up)
chain: RVENRRAFGGGGGGGLKLRRQQQIERELNGYMEWISKAEEVILAEDETDVEQ
modifications: not fully specified
B2: GST_I-II loop with seven alanines inserted between F376 and L377 (domain or fragment, rabbit, UniProt P27884 369-413, looked up)
chain: RVENRRAFAAAAAAALKLRRQQQIERELNGYMEWISKAEEVILAEDETDVEQ

Target: WT β1b_core (core region of Ca2+ channel β1b subunit, G58-T418) (human, UniProt Q02641-1 58-418)
Test: pull-down

WT β1b_core (core region of Ca2+ channel β1b subunit, G58-T418), sequence (Q02641 58-418): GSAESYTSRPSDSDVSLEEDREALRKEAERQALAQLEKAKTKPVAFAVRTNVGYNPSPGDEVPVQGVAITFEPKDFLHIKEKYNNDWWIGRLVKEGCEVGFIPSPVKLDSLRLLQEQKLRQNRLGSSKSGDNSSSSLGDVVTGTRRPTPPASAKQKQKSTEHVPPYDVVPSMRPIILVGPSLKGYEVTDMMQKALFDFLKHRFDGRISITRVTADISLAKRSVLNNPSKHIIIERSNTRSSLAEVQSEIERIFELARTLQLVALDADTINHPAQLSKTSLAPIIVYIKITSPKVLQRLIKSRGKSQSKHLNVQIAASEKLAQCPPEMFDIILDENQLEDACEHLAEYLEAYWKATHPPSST

Does RVENRRAFAAAAALKLRRQQQIERELNGYMEWISKAEEVILAEDETDVEQ (domain or fragment, rabbit, UniProt P27884 369-413, looked up) [GST_I-II loop with five alanines inserted between F376 and L377] bind?
Result: binds

Does B1 bind?
Result: binds

Does RVENRRAFGGGGGLKLRRQQQIERELNGYMEWISKAEEVILAEDETDVEQ (domain or fragment, rabbit, UniProt P27884 369-413, looked up, not fully specified) [GST_I-II loop with five glycines inserted between F376 and L377] bind?
Result: binds

Does B2 bind?
Result: binds
